Results on one molecule are retold here after PMC12114846, “Interleukin-15Rα-Sushi-Fc Fusion Protein Co-Hitchhikes Interleukin-15 and Pheophorbide A for Cancer Photoimmunotherapy” (Pharmaceutics, 2025).

The experiment deals with IL-15 (Homo sapiens), P40933. To be noted: Fc fusion; remark: other sources report otherwise.
Sequence of IL-15 (Homo sapiens), P40933 (P40933 49-162): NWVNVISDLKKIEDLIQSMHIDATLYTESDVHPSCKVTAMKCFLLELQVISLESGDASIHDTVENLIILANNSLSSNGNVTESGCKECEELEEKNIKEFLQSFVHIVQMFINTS

B1: rIL-15Rα-Fc, Q13261 (protein)
chain: ITCPPPMSVEHADIWVKSYSLYSRERYICNSGFKRKAGTSSLTECVLNKATNVAHWTTPSLKCIRDPALVHQRPAPPSTVTTAGVTPQPESLSPSGKEPAASSPSSNNTAATTAAIVPGSQLMPSKSPSTGTTEISSHESSHGTPSQTTAKNWELTASASHQPPGVYPQGHSDTT
The Kd is the constant that tells how readily two partners part at equilibrium. A lower Kd goes with tighter binding. B1 showed a Kd of 115 pM.
